Assay results taken from PMC5389604.

Biological target: T1, RarA (MgsA) (Escherichia coli, UniProt P0AAZ4 1-447)
T1 sequence: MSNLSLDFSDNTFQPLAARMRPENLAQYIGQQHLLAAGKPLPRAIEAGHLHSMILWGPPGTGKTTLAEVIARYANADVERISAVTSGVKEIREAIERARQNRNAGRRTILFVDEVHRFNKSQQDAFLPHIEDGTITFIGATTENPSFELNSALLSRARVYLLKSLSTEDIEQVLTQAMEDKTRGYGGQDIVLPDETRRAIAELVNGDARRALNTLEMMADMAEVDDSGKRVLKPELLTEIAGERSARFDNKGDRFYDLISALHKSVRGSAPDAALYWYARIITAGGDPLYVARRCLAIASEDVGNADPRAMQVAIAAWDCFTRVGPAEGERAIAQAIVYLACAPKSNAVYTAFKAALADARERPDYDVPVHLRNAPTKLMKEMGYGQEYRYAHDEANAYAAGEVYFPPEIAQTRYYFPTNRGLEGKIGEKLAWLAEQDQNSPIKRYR
Test: fluorescence polarization

B1: oANP031_F 16 nt ssDNA (ssDNA)
DNA: ACACAGAAGGAGACGG
B1 gave a Kd of 890 ± 28 nM.
